Data on one molecule can be found in patent US11124779B2, “Compositions and methods for treating and preventing pancreatitis, renal injury and cancer” (Yale University, priority 2014, dated 2021).

Assay [1] relates to isolated mouse acini. In words: Injury of isolated mouse pancreatic acini (MTT, LDH release, H&E histology). Format: cell-based. As to conditions: WT mouse acini, renalase 25 μg/mL, cerulein. The protocol:
(§1) FIGS. 9A-9E, depict the results of experiments that show recombinant exogenous renalase reduce zymogen activation and injury in vitro in mice. (FIG. 9A) Isolated WT mouse acini were pretreated for 30 minutes with recombinant renalase (25 μg/mL; 0.1 μM) and then treated with either (FIG. 9A, 9D, 9E) physiologic (0.1 nM) and supraphysiologic (100 nM) cerulein or (FIG. 9B) physiologic (1 μM) or supraphysiologic (1000 μM) carbachol for 30 minutes. Trypsin activity (FIGS. 9A-9C), MTT accumulation (FIG. 9D), and LDH release (FIG. 9E) were assayed using a fluorogenic substrate. For FIG. 9C, isolated acini from renalase ^−/^− mice were treated pretreated with recombinant renalase (25 μg/mL) and then treated with cerulein (0.1 nM or 100 nM) for 30 minutes. *p<0.05 vs. supraphysiologic cerulein or carbachol, # p<0.05 vs. WT, n=3, +/−SEM.
FIGS. 13A-13C, depict the results of experiments showing caloxin blocks the protective effects of renalase. […]
Next, it was assessed whether pretreatment with recombinant human renalase reduces injury in pancreatitis. This was first assessed in isolated groups of murine acinar cells (acini) that were exposed to supraphysiologic concentrations of cerulein and carbachol (which induces early acinar cell pancreatitis responses) in isolated WT mouse acini and acini isolated from renalase deficient mice in vitro (FIG. 9). […]

Assay [2] concerns isolated mouse acini. In words: Trypsin activity (zymogen activation) in isolated mouse pancreatic acini. The format is cell-based. The protocol:
as §1
FIGS. 13A-13C, depict the results of experiments showing caloxin blocks the protective effects of renalase. Isolated WT mouse acini were pretreated for 30 minutes with caloxin 1b (100 μM) and/or recombinant renalase (25 μg/mL) and then treated with supraphysiologic (100 nM) cerulein (CER) and assayed for trypsin activity (FIG. 13A) or MTT conversion (FIG. 13B). *p<0.05 vs. CER, # p<0.05 vs. CER+renalase. WT, n=3, +/−SEM.
Next, it was assessed whether pretreatment with recombinant human renalase reduces injury in pancreatitis. This was first assessed in isolated groups of murine acinar cells (acini) that were exposed to supraphysiologic concentrations of cerulein and carbachol (which induces early acinar cell pancreatitis responses) in isolated WT mouse acini and acini isolated from renalase deficient mice in vitro (FIG. 9). The recombinant renalase reduced trypsinogen activation induced by either cerulein (FIG. 9A) or carbachol (FIG. 9B). […] Renalase had no effect on untreated acini or acini treated with physiologic stimulation.

The conditions of assay [3]: cited from earlier work.

B1: recombinant renalase: recombinant full-length human renalase, secretory flavoprotein oxidase; synthesized as in Desir et al., 2012; SEQ ID NO: 8 or 9 (protein)
chain: ALLRRQTSGPLYLAVWDKAEDSGGRMTTACSPHNPQCTADLGAQYITCTPHYAKKHQRFYDELLAYGVLRPLSSPIEGMVMKEGDCNFVAPQGISSIIKHYLKESGAEVYFRHRVTQINLRDDKWEVSKQTGSPEQFDLIVLTMPVPEILQLQGDITTLISECQRQQLEAVSYSSRYALGLFYEAGTKIDVPWAGQYITSNPCIRFVSIDNKKRNIESSEIGPSLVIHTTVPFGVTYLEHSIEDVQELVFQQLENILPGLPQPIATKCQKWRHSQVTNAAANCPGQMTLHHKPFLACGGDGFTQSNFDGCITSALCVLEALKNYI
Turning to B1, the “injury of acini in vitro (MTT accumulation, LDH release)” value in the assay with isolated mouse acini [1] is “reduce”. Further, the “trypsinogen activation induced by cerulein” value in the assay with isolated mouse acini [2] (WT mouse acini, renalase 25 μg/mL 30 minutes pretreatment, supraphysiologic (100 nM) cerulein) is “reduced”. The “trypsinogen activation induced by carbachol” value in the assay with isolated mouse acini [2] (WT mouse acini, renalase 25 μg/mL 30 minutes pretreatment, supraphysiologic (1000 μM) carbachol) is reported as “reduced”. The “effect on untreated acini” value in the assay on isolated mouse acini [2] (no stimulation) is recorded as “no effect”. Besides, the “effect on acini treated with physiologic stimulation” value in the assay with isolated mouse acini [2] (physiologic cerulein (0.1 nM) or carbachol (1 μM)) was “no effect”. Besides, the “trypsinogen activation in acini from renalase knockout (KO) mice” value in the assay on isolated mouse acini [2] (renalase 25 μg/mL, cerulein 0.1 nM or 100 nM, 30 minutes) is reported as “reduced”. The blood pressure result in assay [3] (rodents, Xu et al., 2005, Milani et al., 2011) is recorded as “decreases blood pressure”. For the same molecule, in assay [3] (wild type (WT) mice), the plasma catecholamines result is given as “lowers” and the systemic blood pressure result is “lowers”.
